Eight molecules from patent US20180318438A1, “ANTIBODY DRUG CONJUGATES OF KINESIN SPINDEL PROTEIN (KSP) INHIBITORS WITH ANTI-TWEAKR-ANTIBODIES” (Bayer Pharma Aktiengesellschaft, priority 2015, published 2018) can be followed below.

One may read the IC50 as the concentration that inhibits the measured activity by half. Usually Kd stands for the constant that tells how readily two partners part at equilibrium. A high value points to lower affinity. The EC50 is the concentration at which the effect is half-maximal. Broadly, the koff is a measure of how fast the partners let go of each other. Read a low koff as a long-lived complex. For orientation: kon means the rate constant with which the complex forms. High values mean faster complex formation, low ones slower complex formation.

Series [1] relates to NCI-H292: human mucoepidermoid lung carcinoma cells. The experiment in a line: Cytotoxicity, MTT assay. The class given is cell-based. The settings on record: NCI-H292, 96 h, metabolites. On the technique in general: Formazan colour is commonly taken as a measure of viable cells.
Experimental: The cells were cultivated according to the standard method using the growth media listed under C-1. […] The cells were then incubated in an incubator at 37° C. and 5% carbon dioxide. […] To this end, the MTT reagent was incubated with the cells for 4 h, followed by lysis of the cells overnight by addition of the detergent. […] The measured data were used to calculate the IC50 of the growth inhibition using the DRC (dose response curve). The proliferation of cells which were not treated with test substance but were otherwise identically treated was defined as the 100% figure.
In series [2] the test system is KPL4: human breast cancer cell line. The experiment in a line: Cytotoxicity, MTT assay. Type of series: cell-based. The settings on record: KPL4, 96 h, metabolites, KPL4 cells. On the procedure:
The cells were cultivated according to the standard method using the growth media listed under C-1. The test is carried out by detaching the cells with a solution of Accutase in PBS (Biochrom AG #L2143), pelleting, resuspending in culture medium, counting and sowing into a 96-well culture plate with white bottom (Costar #3610) (NCI H292: 2500 cells/well, KPL-4: 1200 cells/well, SK-HEP-1: 1500 cells/well in a total volume of 100 μl). The cells were then incubated in an incubator at 37° C. and 5% carbon dioxide. After 48 h, the medium was replaced. The metabolites in 10 μl of culture medium in concentrations from 10^−5M to 10^−13M were then pipetted to the cells (in triplicate), and the assay was then incubated in an incubator at 37° C. and 5% carbon dioxide. […] To this end, the MTT reagent was incubated with the cells for 4 h, followed by lysis of the cells overnight by addition of the detergent. The dye formed was detected at 570 nm (Infinite M1000 pro, Tec an). The measured data were used to calculate the IC50 of the growth inhibition using the DRC (dose response curve). The proliferation of cells which were not treated with test substance but were otherwise identically treated was defined as the 100% figure.

Series [3] deals with Caco-2 cells. The experiment in a line: Cell permeability, flux assay using Caco-2 cells. The settings on record: basal to apical, 2 h. (Caco-2 monolayers are a common model of the intestinal barrier.)
The target of series [4] is T1, TWEAKR on human cells (NCI-H292, 786-O, A498, SK-HEP-1, HEK293) (human, UniProt Q9NP84 28-129).
T1 sequence: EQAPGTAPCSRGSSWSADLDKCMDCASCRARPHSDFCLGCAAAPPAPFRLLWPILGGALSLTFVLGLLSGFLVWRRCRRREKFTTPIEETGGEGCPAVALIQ
Nature of the series: cell-based or functional assay.

For series [5], the target named is T2, TPP-2305, hTNFRSF12 amino acids 28-80 (extracellular domain of TWEAKR) (human, UniProt Q9NP84 28-80).
T2 construct: Bought recombinant antigen (Fitzgerald 30R-AT080); also called TWEAKR extracellular domain; 30R-AT080 (Fitzgerald)
T2 sequence: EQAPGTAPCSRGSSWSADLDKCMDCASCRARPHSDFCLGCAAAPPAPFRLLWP
The experiment in a line: SPR (Biacore T200), antibody captured by anti-human Fc on CM5, TWEAKR extracellular domain 3.9-500 nM as analyte, 25 C; monovalent KD.

Series [6] concerns the target T1, TWEAKR on human cells (NCI-H292, 786-O, …). The experiment in a line: flow cytometry on SK-HEP-1 cells, dose curve from 10 ug/ml in 1:5 steps, anti-kappa-FITC secondary.
The target is the same in series [7]. Nature of the series: flow cytometry on NCI-H292 cells, dose curve from 10 ug/ml in 1:5 steps, anti-kappa-FITC secondary.
The target of series [8] is T2, TPP-2305, hTNFRSF12 amino acids 28-80 …. Nature of the series: SPR (Biacore T200), antibody captured by anti-human Fc on CM5, TWEAKR extracellular domain 3.9-500 nM as analyte, 25 C.

Take `CC(C)(C)[C@H](c1cc(-c2cc(F)ccc2F)cn1Cc1ccccc1)N(CC[C@H](N)C(=O)NCCNC(=O)CNC(=O)CC(SC[C@H](N)C(=O)O)C(=O)O)C(=O)CO` (stereo partly drawn) [Example M13, 4-[(2-{[2-({(2S)-2-Amino-4-[{(1R)-1-[1-benzyl-4-(2,5-difluorophenyl)-1H-pyrrol-2-yl]-2,2-dimethylpropyl}(glycoloyl)amino]butanoyl}amino)ethyl]amino}-2-oxoethyl)amino]-2-{[(2R)-2-amino-2-carboxyethyl]sulphanyl}-4-oxobutanoic acid/trifluoroacetic acid (1:1)]: the figures for the IC50 in series [1] and in series [2] were 152 nM and 169 nM, respectively.
As for `CC(C)(C)[C@H](c1cc(-c2cc(F)ccc2F)cn1Cc1ccccc1)N(CC[C@H](N)C(=O)N[C@H](CCC(=O)O)C(=O)O)C(=O)CO.O=C(O)C(F)(F)F` [Example M25, N-{(2S)-2-Amino-4-[{(1R)-1-[1-benzyl-4-(2,5-difluorophenyl)-1H-pyrrol-2-yl]-2,2-dimethylpropyl}(glycoloyl)amino]butanoyl}-L-glutamic acid/trifluoroacetic acid (1:1)], the “Papp (B-A)” value in series [3] was 0.81 ×10⁻⁶ cm/s.
The same measure, in the same setting: then `CC(C)(C)[C@H](c1cc(-c2cc(F)ccc2F)cn1Cc1ccccc1)N(CC[C@H](N)C(=O)NCCNC(=O)CNC(=O)CC(SC[C@H](N)C(=O)O)C(=O)O)C(=O)CO.O=C(O)C(F)(F)F` (stereo partly drawn) [Example M26, 4-[(2-{[2-({(2S)-2-Amino-4-[{(1R)-1-[1-benzyl-4-(2,5-difluorophenyl)-1H-pyrrol-2-yl]-2,2-dimethylpropyl}(glycoloyl)amino]butanoyl}amino)ethyl]amino}-2-oxoethyl)amino]-2-{[(2R)-2-amino-2-carboxyethyl]sulphanyl}-4-oxobutanoic acid/trifluoro acetic acid (1:1)], with 1.3 ×10⁻⁶ cm/s.

B1: ITEM-4 (antibody, V domains shown)
VH: QVQLQQSGPELVKPGASVKMSCKASGYTFTDFIIAWVKQRTGQGLEWIGEIYPGTGRTYYSEKFRGKATLTADKSSNTAYMQLSSLTSVDSAVYFCARRTIYYDYDGDYWGQGTTLTVSS
VL: DIVMTQAAFSNPVTLGTSASISCRSSKSLLHSNGITYLYWYLQKPGQSPQLLIYQMSNLASGVPDRFSSSGSGTDFTLRISRVEAEDVGVYYCAHNLELPWTFGGGTKLELK
notes: Murine IgG2b, bought (eBioscience 13-9018); also called anti-TWEAKR AK1A; AK1A
For B1, the “Agonistic activity [%] of the TWEAK-ind. agonism (NF-kappaB reporter gene assay, HEK293)” value (“Agonistic activity [%]” below) in series [4] is 14%. In addition, in series [5], the dissociation constant (Kd) came out at 0.7 nM.

B2: TPP-7006 (antibody, human IgG1, kappa, V domains shown)
VH: QVQLQQSGPELVKPGASVKMSCKASGYTFTDFIIAWVKQRTGQGLEWIGEIYPGTGRTYYSEKFRGKATLTADKSSNTAYMQLSSLTSVDSAVYFCARRTIYYDYDGDYWGQGTTLTVSS
VL: DIVMTQAAFSNPVTLGTSASISCRSSKSLLHSNGITYLYWYLQKPGQSPQLLIYQMSNLASGVPDRFSSSGSGTDFTLRISRVEAEDVGVYYCAHNLELPWTFGGGTKLELKR
notes: also called anti-TWEAKR AK1C; AK1C
B2: the “Agonistic activity [%]” value in series [4] is 3%. In series [5], this molecule gave a Kd of 0.33 nM. In addition, the EC50 was determined as 0.83 nM in series [6] and 0.54 nM in series [7].

B3: TPP-7007 (antibody, human IgG1, kappa, V domains shown)
VH: QVQLVQSGAEVKKPGASVKVSCKASGYTFTDFIIAWVKQAPGQGLEWIGEIYPGTGRTYYSEKFRGKATLTADTSTSTAYMELSSLRSEDTAVYFCARRTIYYDYDGDYWGQGTLVTVSS
VL: DIVMTQSPLSLPVTPGEPASISCRSSKSLLHSNGITYLYWYLQKPGQSPQLLIYQMSNLASGVPDRFSGSGSGTDFTLKISRVEAEDVGVYYCAHNLELPWTFGQGTKVEIKR
notes: also called anti-TWEAKR AK1D; AK1D
Regarding B3, in series [4], the “Agonistic activity [%]” value came to 4%. In series [5], this molecule showed a dissociation constant (Kd) of 1.4 nM. Further, the figures for the half-maximal effective concentration (EC50) in series [6] and in series [7] were 0.9 nM and 0.8 nM, respectively.

B4: TPP-7075 (antibody, human IgG1, kappa, V domains shown)
VH: QVQLVQSGAEVKKPGASVKVSCKASGYTFTDFIIAWVKQAPGQGLEWIGEIYPGTGRTYYSEKFRGKATLTADTSTSTAYMELSSLRSEDTAVYFCARRTIYYDYDGDYWGQGTLVTVSS
VL: DIVMTQSPLSLPVTPGEPASISCRSSKSLLHSSGITYLYWYLQKPGQSPQLLIYQMSNLASGVPDRFSGSGSGTDFTLKISRVEAEDVGVYYCAHNLELPWTFGQGTKVEIKR
For B4, in series [4], the “Agonistic activity [%]” value is 15% and the “Antagonistic activity IC50 [M] (NF-kappaB reporter gene assay in the presence of Tweak 200 ng/ml)” value was found to be 2.4e-08 M. The Kd in series [5] was determined as 6 nM. In series [7], this molecule showed a concentration giving a half-maximal response (EC50) of 8.9 nM.

B5: TPP-7005 (antibody, human IgG1, kappa, V domains shown)
VH: QVQLVQSGAEVKKPGASVKISCKVSGYTFTDFIIAWVKQAPGKGLEWIGEIYPGTGRTYYSEKFRGKATLTADKSTSTAYMELSSLRSEDTAVYYCARRTIYYDYDGDYWGQGTTVTVSS
VL: DIVMTQSPLSLPVTPGEPASISCRSSKSLLHSNGITYLYWYLQKPGQSPQLLIYQMSNLASGVPDRFSSSGSGTDFTLKISRVEAEDVGVYYCAHNLELPWTFGGGTKVEIKR
notes: also called anti-TWEAKR AK1B; AK1B
B5: in series [4], the “Agonistic activity [%]” value came to 0.1% and the “Antagonistic activity IC50 [M] (NF-kappaB reporter gene assay in the presence of Tweak 200 ng/ml)” value came out at 2e-11 M. In series [8], this molecule registered a koff of 0.0018 s⁻¹ and an on-rate constant (kon) of 6.8e+06 M⁻¹ s⁻¹. The molecule further displayed a Kd in series [5] of 0.26 nM. Besides, in series [6], the midpoint of the response, the EC50, lay at 0.54 nM. Also, the EC50 in series [7] was determined as 0.5 nM.
